Experiments:
[1] = target: claudin 18.1 (CLDN18.1) (human) (UniProt P56856); assay: in-cell ELISA on HEK293-CLDN18.1 cells
[2] = target: claudin 18.2 (CLDN18.2) (human); assay: in-cell ELISA on HEK293-CLDN18.2 cells

Chain of claudin 18.1 (CLDN18.1) (human) (P56856 whole entry): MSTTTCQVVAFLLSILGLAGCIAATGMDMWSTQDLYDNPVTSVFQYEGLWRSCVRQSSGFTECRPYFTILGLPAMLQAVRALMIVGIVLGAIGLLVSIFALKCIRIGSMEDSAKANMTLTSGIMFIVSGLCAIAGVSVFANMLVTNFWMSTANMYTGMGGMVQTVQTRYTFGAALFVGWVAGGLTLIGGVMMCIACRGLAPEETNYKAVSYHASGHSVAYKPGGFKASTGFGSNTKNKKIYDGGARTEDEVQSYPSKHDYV

## mouse IgG (control) (antibody)
[1]
  OD450/µg IgG: 1.54 OD450/µg IgG
[2]
  OD450/µg IgG: 3.23 OD450/µg IgG
